Where two headings read alike, the source gives them in different places.

This assay addresses T1, PP2A (Homo sapiens, UniProt P67775).
T1 construct: purchased LSBio
Kind of assay: BLI: PP2A analyte binding to immobilized Caspase 9 (Protein A biosensor, anti-Caspase 9). As to the method: Kinetic analysis was performed based on biolayer interferometry (BLI) by using a BLItz instrument (ForteBio, Bayonne, France) at room temperature. Prior to use, each biosensor was hydrated in sample diluent (SD: PBS1X, pH 7.0, 0.02% Tween 20, 0.1% BSA) for at least 10 min. Kinetic measurements of PP2A/Caspase 9 interactions were run with Protein A biosensors (Fortebio) and consisted of seven steps, all performed in reaction buffer, as follows: (i) initial baseline in 300 µL SD for 30 s was measured; (ii) 4 µL of mouse anti-Caspase 9 or rabbit anti-PP2A were immobilized on the sensor for 150 s at 133 nM; (iii) the immunosensor was washed with 300 µL SD for 120 s; (iv) 4 µL of purified ligand Caspase 9 at 566 nM (Origen) or PP2A at 694 nM (LSBio) were loaded on the immunosensor for 150 s; (v) the ligand-coated immunosensor was washed with 300 µL SD for 120 s; (vi) association of purified analytes diluted in SD at the mentioned concentrations was studied for 150 s in 4 µL; and (vii) dissociation step was then monitored in 300 µL SD for 120 s.
Experiments using empty immunosensors (no ligand loaded) were run as control. Sensorgrams were fit globally to a 1:1 binding model by BLItz Pro software, from which the association (kon) and dissociation (koff) rate constants and apparent affinities (KD) were calculated. […]

T1 sequence (P67775 whole entry): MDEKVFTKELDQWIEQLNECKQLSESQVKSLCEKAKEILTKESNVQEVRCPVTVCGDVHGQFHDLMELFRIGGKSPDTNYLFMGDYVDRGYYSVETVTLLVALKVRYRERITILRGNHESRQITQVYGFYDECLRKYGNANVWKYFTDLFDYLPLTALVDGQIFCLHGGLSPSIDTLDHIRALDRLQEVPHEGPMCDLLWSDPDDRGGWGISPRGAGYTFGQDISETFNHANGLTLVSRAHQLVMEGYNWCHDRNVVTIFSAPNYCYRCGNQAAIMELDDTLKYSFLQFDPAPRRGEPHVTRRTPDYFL

B1: Caspase 9: purified Caspase 9 protein (Origen), cysteine protease, initiator of intrinsic apoptosis (protein)
chain: MDEADRRLLRRCRLRLVEELQVDQLWDALLSRELFRPHMIEDIQRAGSGSRRDQARQLIIDLETRGSQALPLFISCLEDTGQDMLASFLRTNRQAAKLSKPTLENLTPVVLRPEIRKPEVLRPETPRPVDIGSGGFGDVGALESLRGNADLAYILSMEPCGHCLIINNVNFCRESGLRTRTGSNIDCEKLRRRFSSLHFMVEVKGDLTAKKMVLALLELAQQDHGALDCCVVVILSHGCQASHLQFPGAVYGTDGCPVSVEKIVNIFNGTSCPSLGGKPKLFFIQACGGEQKDHGFEVASTSPEDESPGSNPEPDATPFQEGLRTFDQLDAISSLPTPSDIFVSYSTFPGFVSWRDPKSGSWYVETLDDIFEQWAHSEDLQSLLLRVANAVSVKGIYKQMPGCFNFLRKKLFFKTS
modifications: Commercial purified Caspase 9 (Origen)
Take B1: the Kd was roughly 150 nM (discussion summary of PP2A/Caspase 9 BLI studies, in the range of, read-out: binding affinity of PP2A to Caspase 9) and roughly 100 nM (summary: close to, PP2A analyte on immobilized Caspase 9, read-out: affinity, both models).

Values taken from article PMC9609871, “Binding and Kinetic Analysis of Human Protein Phosphatase PP2A Interactions with Caspase 9 Protein and the Interfering Peptide C9h” (Pharmaceutics, 2022).
